Molecular target: T1, mouse recombinant TNF-α (Mus musculus, UniProt P06804)
T1 sequence (P06804 80-235 limits assumed): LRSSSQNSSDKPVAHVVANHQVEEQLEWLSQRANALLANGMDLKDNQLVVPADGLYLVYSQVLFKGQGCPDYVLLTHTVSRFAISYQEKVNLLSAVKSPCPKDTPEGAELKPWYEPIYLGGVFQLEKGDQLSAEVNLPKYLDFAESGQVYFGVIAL
Assay: Bioactivity of protease-treated mouse TNF-α in the C2C12 cell bioassay (nitrite)
Format: cell-based
Details: C2C12 cells, NO (nitrite) production
Procedure: Effects of three purified A. oryzae proteases on the bioactivity of mouse TNF-α (A) protease powder prepared according to Example 1 (preparation); (B) alkaline protease; (C) 26 kDa protease; and (D) deuterolysin. 50 ng quantities of TNF-α were incubated at 37° C. for 24 hours with the indicated quantities of the protease powder prepared according to Example 1 or one of the three purified proteases. The reactions were then stopped by addition of FBS and samples were added to C2C12 cells that had been costimulated with mouse IFN-γ. Twenty-four hours later, nitrite was measured in culture fluids.
The protease powder prepared according to Example 1 inactivates mouse recombinant TNF-α. 50 ng of the cytokine was treated for 24 hours with either 0 (□); 5 (∘); or 10 ng ([…]) of either Pseudomonas elastase (A) or protease powder prepared according to Example 1 (B). Then the residual bioactivity of the cytokine was measured by its ability to co-activate mouse C2C12 myoblast cells in the presence of excess IFN-γ for the production of NO (nitrite).
The protease powder prepared according to Example 1 inactivates mouse recombinant TNF-α by limited proteolysis. […]

Substance: Pseudomonas elastase: Pseudomonas protease used as a positive control [reference compound]
- Effect on bioactivity of mouse TNF-α: led to a loss of its biological activity

Source: patent publication US20090068174A1, “THERAPEUTIC ALKALINE PROTEASE COMPOSITIONS AND USE IN FACILITATING THE TRANSPORT OF AGENTS ACROSS THE GASTROINTESTINAL MUCOSAL LINING” (Kansas University Medical Center Research Institute, Inc., priority 2007, published 2009)
